# Paper PMC12311895 (2025)
# Where no end group is shown, it is not given here.
# T1: MBP-PDZ protein (Erbin PDZ) with a single cysteine, conjugated to DNA (UniProt Q96RT1 1321-1410, ATTO 532 (labelled with ATTO 532-NHS); amine-modified DNA oligonucleotide coupled through sulfo-SMCC to the single cysteine between MBP and PDZ)
# T1 chain: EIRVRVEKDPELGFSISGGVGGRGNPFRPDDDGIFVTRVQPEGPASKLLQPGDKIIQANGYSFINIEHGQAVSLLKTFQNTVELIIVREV
# Biological target: T1, MBP-PDZ protein (Erbin PDZ) with a …
# Test: FP; no DNA attached to MBP-PDZ
binder,measurement,value
CGAGRGSIDTWV (also: ATTO 655 label (site not given here)) [ATTO 655-labeled target peptide],Kd,200 nM
